Like-named read-outs stand apart in the source and are kept apart here.
Assays:
transgenic maize plants = assay: hybrid trait efficacy field trials (F1); type: in vivo; conditions: 2× quizalofop-P, six locations
Experimental: Inbred trait efficacy field trials were conducted to assess tolerance to the AOPP herbicides and sensitivity to the cyclohexanediones (CHD) herbicides in an inbred background. R2 inbred plants were generated by selfing a homozygous transgenic R1 plant and collecting seed. R2 inbred plants containing MON-HT55 with or without a CTP or MON-HT51 with a CTP and were evaluated at two field locations. Herbicide treatment was 2× quizalofop-P at 0.16 lb ai/acre applied PRE (after planting but before emergence) followed by quizalofop-P at 0.16 lb ai/acre applied at V4 growth stage followed by quizalofop-P at 0.16 lb ai/acre applied at V8 growth stage. Plots were rated for crop injury 7-10 days after herbicide application on a scale of 0-100 with zero being no injury and 100 being complete crop death. All data were subjected to analysis of variance and means separated at LSD (0.05). […] To test for sensitivity to CHD herbicides, which is desirable for use in volunteer control, plants were treated with a 1× rate of clethodim (0.25 lb ai/acre) at V8 growth stage. Volunteer control using a 1× rate of clethodim was 100% effective for all transgenic plants tested. Hybrid trait efficacy field trials were conducted to assess tolerance to the AOPP herbicides and sensitivity to the cyclohexanediones (CHD) herbicides in a hybrid background. F1 hybrid plants were produced by crossing an R1 inbred plant with a non-transgenic plant and collecting seed. The resulting F1 plants containing MON-HT55 (SEQ ID NO:13) with or without a CTP or MON-HT51 (SEQ ID NO: 3) without a CTP were evaluated at six field locations. The hybrid trait efficacy field trials were conducted at six locations under a range of environmental conditions, including high heat and drought conditions during the field season. This permitted the engineered protein to be evaluated in maize under high temperature and water stress conditions. Initial injury from 2× applications of quizalofop-P were higher than desired (>10% injury) at 7-10 days after application. Plants eventually grew out of most of the injury, with generally less injury from the V8 growth stage application as compared to the V4 growth stage application. Excessive injury was also noted when quizalofop-P was applied very early (for example, at VE-V2 growth stage).

[1] = enzyme kinetic measurements with purified protein; type: biochemical; conditions: for Km: 0-1280 uM substrate; for Vmax Fenoxaprop / Vmax Fluazifop / Vmax Haloxyfop / Vmax Quizalofop-P: relative values
Experimental: The high-throughput herbicide degradation enzyme assay was designed to assay the enzymatic activity of the engineered proteins towards various herbicides using crude bacterial extract. The engineered protein's oxygenase activity (that is, its enzymatic activity) was measured by an end point colorimetric assay utilizing detection of phenol products through measurement of absorbance at 510 nm from 4-aminoantipyrine and potassium ferricyanide. This assay was based on the assay described in Fukomori and Hausinger, Journal of Biological Chemistry (1993) 268(32):24311-24317. Enzyme reactions were assayed in 96-well plates in a total volume of 150ul that contained: 20 mM MOPS pH 6.75, 50-200 uM NH4FeSO4, 50-200 uM sodium ascorbate, 1 mM alpha-ketoglutarate (aKG), 10 ul of E. coli cell lysate containing expressed engineered protein, and substrate (either an AOPP herbicide or phenoxy acid herbicide). […] Absorbance measurements were made on a standard laboratory spectrometer. Assays were scaled as needed to enhance throughput. Standard curves were generated using purified protein or product standards.
Further protein characterization, such as Km, Vmax, and crystal structure analysis, was performed using the five engineered proteins from Table 2. For this detailed analysis, purified protein was prepared as follows: 2 ml overnight cultures of E. coli expressing a transgene encoding a given MON-HT protein were used to inoculate 500 ml of broth and grown at 37° C. for 4 hours followed by culture at 15° C. for approximately 36 hours. Then 250 ml of the 500 ml bacterial culture was pelleted by centrifugation and resuspended in 25 ml of extraction buffer (20 mM Tris, pH 7.8, 300 mM NaCl, 5 mM beta-mercaptoethanol (BME), 20 mM imidazole (Fluka/Sigma-Aldrich, St. Louis, MO), 125 units/ml of benzonase and 10K units/ml of lysozyme (Novagen, Darmstadt, Germany). The cell slurry was passed through a cell disruptor once at 20000 psi and then this cell lysate was clarified by centrifugation at 35,000×g for 20 min at 4° C. The supernatant containing the soluble His-tagged proteins was used for protein purification. For this purification, the supernatant was applied to a 1 ml HisTrap™ FF column (Nickel Sepharose) (GE Healthcare, Piscataway, NJ) using an AKTaxpress™ system (GE Healthcare, Piscataway, NJ) following the standard manufacturer's protocol. The wash buffer consisted of: 20 mM Tris pH 7.8, 300 mM NaCl, 20 mM imidazole and 5 mM BME. The composition of elution buffer was the same as the wash buffer except with 500 mM imidazole. The eluate from the nickel column was desalted on a Quick Spin Protein Sephadex G-25 fine column (Roche Applied Science, Indianapolis, IN) following the manufacturer's protocol. The eluted protein was in buffer consisting of: 20 mM Tris pH 7.8, 50 mM NaCl and 5 mM BME. Protein extract purity was assessed by SDS-PAGE analysis. Protein concentration was determined by Bradford assay using Bio-Rad Protein Assay dye reagent (Biorad, Hercules, CA, cat no 500-0006).
Purified protein for the five engineered proteins was analyzed using the enzyme assay described in this Example 1, but with four different AOPP herbicides as substrates: quizalofop-P, haloxyfop, fenoxaprop, and fluazifop. Standard curves were generated using 2,4-dichlorophenol (2,4-DCP), which was used to produce a general phenol standard curve. The amount of phenol generated in the assay by the engineered proteins was calculated based on this standard curve. The controls were purified wild-type enzyme, no enzyme, and no substrate. Enzyme kinetic measurements of the five engineered proteins was done using 0, 20, 40, 80, 160, 320, 640, or 1280 uM of quizalofop-P, haloxyfop, fenoxaprop, or fluazifop herbicides.

B1: MON-HT51: engineered oxygenase protein, amino acid sequence SEQ ID NO:1 (protein)
chain: MHAALSPLSQRFERIAVQPLTGVLGAEITGVDLREPLSDSTWNEILDAFHTYQVIYFPGQAITNEQHIAFSRRFGPVDPVPLLKSIEGYPEVQMIRREANESGRVIGDDWHTDSSFLDAPPAAVVMRAIDVPEHGGDTGFLSMYTAYDALSDGLKKLISGLNVVHSATRVFGSLYQAQNRRFSNTSVKVMDVADGDRETVHPLVVTHPGSGRKGLYVNQVYCQRIEGMSEKESEPLLSFLFAHATKPEFTCRVRWKKDQVLVWDNLCTMHYAINDYHGQTRILHRTTVGGVRPAR
With B1 the “% injury after V4 spray” value (transgenic maize plants; CTP Yes) was 51.8%, the “% injury after V8 spray” value (transgenic maize plants; CTP Yes) was 33.3% and the Km ([1]; read-out: Km Fenoxaprop) was 870 µM. For the same molecule, the Km ([1]; read-out: Km Fluazifop) was 4 µM, the Km ([1]; read-out: Km Haloxyfop) was 250 µM and the Km ([1]; read-out: Km Quizalofop-P) was 570 µM. The “Vmax Fenoxaprop” value [1] was 180, the “Vmax Fluazifop” value [1] was 12 and the “Vmax Haloxyfop” value [1] was 48. The “Vmax Quizalofop-P” value [1] was 120.

B2: MON-HT55: engineered oxygenase protein, amino acid sequence SEQ ID NO:11 (protein)
chain: MHAALSPLSQRFERIAVQPLTGVLGAEITGVDLREPLDDSTWNEILDAFHTYQVIYFPGQAITNEQHIAFSRRFGPVDPVPLLKSIEGYPEVQMIRREANESGRVIGENWHTDSTFLDAPPAAVVMYAKEIPPYGGDTLFTSMYTAWETLSPTMQATIEGLNVVHSATRVFGSLYQAQNRRFSNTSVKVMDVDAGDRETVHPLVVTHPETGRKGLYVNQVYCQRIEGMSEKESEPLLSFLFAHATKPEFTCRVRWQEGDVLVWDNLCTQHYAVPDYAGKFRYLTRTTVGGVRPAR
In the case of B2, the “% injury after V4 spray” value (transgenic maize plants; CTP No) is reported as 46.8%, the “% injury after V8 spray” value (transgenic maize plants; CTP No) is reported as 78.8% and the “% injury after V4 spray” value (transgenic maize plants; CTP Yes) is reported as 42.6-48.3%. The “% injury after V8 spray” value (transgenic maize plants; CTP Yes) was 14.2-38.8%, the Km ([1]; read-out: Km Fenoxaprop) was 200 µM and the Km ([1]; read-out: Km Fluazifop) was 50 µM. The Km ([1]; read-out: Km Haloxyfop) was 450 µM, the Km ([1]; read-out: Km Quizalofop-P) was 250 µM and the “Vmax Fenoxaprop” value [1] was 450. For the same molecule, the “Vmax Fluazifop” value [1] was 320, the “Vmax Haloxyfop” value [1] was 190 and the “Vmax Quizalofop-P” value [1] was 320.

Reference: patent publication US12723255B2, “Herbicide tolerance genes and methods of use thereof” (priority 2014, dated 2026)
